B1: 3HB6H from strain AD-3 (3-hydroxybenzoate 6-hydroxylase; AZF01_02545) (Martelella sp. AD-3) (protein)
chain: MSNVANEADPILIAGGGIGGLAAAIGLANKGLKSLVLERAPKLGEIGAGIQLGPNAFHAFDYLGVGDAARAIAVYIDNLRLMDAIDGQEITRIPLDDAFRARFRNPYAVIHRGDLHGVFLKACEDHPLVSLRTNAEVVDYDQDENGVTAILKDGERLKGTILIGADGLWSNVRKKVVGDGAPRVSGHTTYRSVIPTEDMPEDLRWNAATLWAGPKCHIVHYPLRGWKLFNLVVTYHNHAPSPEAGVPVSHEEVRKGFEHVAPVARQIIERGQDWKRWVLCDRDPVENWIDGRVVLLGDAAHPMMQYFAQGACMAMEDAVAISHVLGEEGGPLDEALARYQELRALRTARVQLQSREIGQHVYHPGGAHAALRNAVMRSKSPDDWYDIVSWLYGSTGLEGAVSA
notes: full-length, N-terminal His6 tag (pET28a, EcoRI/HindIII), E. coli BL21(DE3), Ni-NTA; about 46 kDa by SDS-PAGE, 90 kDa by Native-PAGE (probable dimer); FAD-containing
B2: 3HB6H from strain AD-3 (3-hydroxybenzoate 6-hydroxylase; AZF01_02545) (Martelella sp. AD-3; Y306H) (protein)
chain: B1 chain with Y306H
notes: as for B1
B3: 3HB6H from strain AD-3 (3-hydroxybenzoate 6-hydroxylase; AZF01_02545) (Martelella sp. AD-3; Y221F) (protein)
chain: B1 chain with Y221F
notes: as for B1
B4: 3HB6H from strain AD-3 (3-hydroxybenzoate 6-hydroxylase; AZF01_02545) (Martelella sp. AD-3; A308G) (protein)
chain: B1 chain with A308G
notes: as for B1
B5: 3HB6H from strain AD-3 (3-hydroxybenzoate 6-hydroxylase; AZF01_02545) (Martelella sp. AD-3; Q305P) (protein)
chain: B1 chain with Q305P
notes: as for B1

Changes are numbered by the printed parent chain. Names and notes keep the numbering of the source.

One data set has as its target T1, 3HB6H from strain AD-3 (3-hydroxybenzoate 6-hydroxylase; AZF01_02545) (Martelella sp. AD-3, UniProt Z9T156WZO1).
T1 construct: full-length, N-terminal His6 tag (pET28a, EcoRI/HindIII), E. coli BL21(DE3), Ni-NTA; about 46 kDa by SDS-PAGE, 90 kDa by Native-PAGE (probable dimer); FAD-containing
T1 sequence (Z9T156WZO1 1-403): B1 chain
Description: NADH oxidation at […] nm, Lineweaver-Burk. The data set is classed as biochemical. The note with it: 400 μM 3-hydroxybenzoate, 50 mM potassium phosphate pH 8.0, 30°C; read-out: NADH / Km.
For the molecule `NC(=O)C1=CN([C@@H]2O[C@H](COP(=O)(O)OP(=O)(O)OC[C@H]3O[C@@H](n4cnc5c(N)ncnc54)[C@H](O)[C@@H]3O)[C@@H](O)[C@H]2O)C=CC1` [NADH], the Km was found to be 50 ± 9.7 µM.

The data set is the same for the next values; noted with them: 400 μM NADH, 50 mM potassium phosphate pH 8.0, 30°C; read-out: 3HB / Km.
With `O=C(O)c1cccc(O)c1` [3-hydroxybenzoate], the Km was determined as 28.6 ± 7.3 µM.

Substrate in another data set: NC(=O)C1=CN([C@@H]2O[C@H](COP(=O)(O)OP(=O)(O)OC[C@H]3O[C@@H](n4cnc5c(N)ncnc54)[C@H](O)[C@@H]3O)[C@@H](O)[C@H]2O)C=CC1
The experiment in a line: purified protein. The note with it: 400 μM 3-hydroxybenzoate, 50 mM potassium phosphate pH 8.0, 30°C. In kind it is biochemical, Martelella sp. AD-3.
Usually kcat stands for the maximal rate divided by the concentration of active sites. Broadly, the kcat/Km is the second-order rate constant that governs catalysis at low substrate concentration. Turning to B1, the Km was 104.1 ± 18.2 µM, the kcat amounted to 7.8 ± 0.4 s⁻¹ and the specificity constant (kcat/Km) was 80000 M⁻¹ s⁻¹.

Turning to B2, the Km came to 103.7 ± 13.6 µM and the kcat amounted to 1.6 ± 0.3 s⁻¹.

Turning to B3, the Km is 86.7 ± 10.8 µM, the turnover number (kcat) turned out to be 1 ± 0.1 s⁻¹ and the kcat/Km was 10000 M⁻¹ s⁻¹.

B4: the Km worked out at 33.7 ± 6.4 µM, the kcat was 2 ± 0.1 s⁻¹ and the specificity constant (kcat/Km) worked out at 60000 M⁻¹ s⁻¹.

For the molecule B5, the Km came to 95.9 ± 23.2 µM, the kcat turned out to be 1.6 ± 0.1 s⁻¹ and the specificity constant (kcat/Km) was 20000 M⁻¹ s⁻¹.

Substrate in the next data set: O=C(O)c1cccc(O)c1
Description: purified protein. In kind it is biochemical, Martelella sp. AD-3. Particulars: 400 μM NADH, 50 mM potassium phosphate pH 8.0, 30°C.
Regarding B1, the Km was determined as 72.6 ± 10.1 µM, the kcat turned out to be 5.7 ± 0.2 s⁻¹ and the specificity constant (kcat/Km) came out at 80000 M⁻¹ s⁻¹.

As to B2, the Km was found to be 46.3 ± 6.9 µM, the catalytic constant (kcat) was 1.5 ± 0.1 s⁻¹ and the kcat/Km is 30000 M⁻¹ s⁻¹.

Take B3: the Km was 164.2 ± 14.0 µM, the catalytic constant (kcat) was 1.7 ± 0.1 s⁻¹ and the kcat/Km was 10000 M⁻¹ s⁻¹.

As to B4, the Km amounted to 38.0 ± 10.1 µM, the kcat is 2.3 ± 0.1 s⁻¹ and the catalytic efficiency (kcat/Km) was 60000 M⁻¹ s⁻¹.

Turning to B5, the Km turned out to be 91.3 ± 13.5 µM, the turnover number (kcat) stood at 1.6 ± 0.1 s⁻¹ and the catalytic efficiency (kcat/Km) turned out to be 20000 M⁻¹ s⁻¹.

(Values after PMC6043778, “Purification and Initial Characterization of 3-Hydroxybenzoate 6-Hydroxylase From a Halophilic Martelella Strain AD-3” (Frontiers in Microbiology, 2018).)
